Laboratory results taken from US20110191903A1, “ENGINEERING PLANT RESISTANCE TO DISEASES CAUSED BY PATHOGENS” (Pioneer Hi-Bred International, Inc., priority 2009, published 2011).

Assays:
Assay type in all cases: biochemical, Ceriporiopsis subvermispora
[1] = substrate: O=C(O)C(=O)O; experiment: Oxalate oxidase kinetics, coupled horse radish peroxidase assay, ALT6 (3-21)
Source text: (§1) The E. coli expression system was based on the published protocol of Escutia et al. Escutia et al., Cloning and sequencing of two Ceriporiopsis subvermispora bicupin oxalate oxidase allelic isoforms: implications for the reaction specificity of oxalate oxidases and decarboxylases. (2005). The coding sequence for the mature OXOX enzyme was inserted in E. coli expression vector pET32 (Invitrogen) to include a 6× histidine tag at the C-terminus. The resulting expression plasmid was transformed into E. coli strain BL21Star pLysS (Invitrogen).
(§2) E. coli cultures were grown at 37° C. At optical density 0.4, arabinose was added to a concentration or 0.4%. After another hour of growth at 37° C., MnCl2 was added to 5 mM and IPTG to 1 mM. Cultures were then grown at 25° C. for 16 hours. Cells were harvested by centrifugation at 4000 rpm for 10 min. The supernatant was discarded and cell pellets were kept at −80° C. for at least one hour. Pellets were resuspended in total 40 ml of lysis buffer with 50 mM phosphate buffer pH7, 2 mg/ml protease inhibitor (sigma P-8465), 100 mM KCL, 1/1000 lysozyme, 1/2000 endonuclease, and incubated at 37° C. with shaking for one hour, followed by sonication. Cellular debris was removed by centrifugation and the clarified supernatant was poured into a new tube. Nickel resin (Qiagen) was added. After a short period of incubation, the slurry was poured onto a column and washed with buffer. Purified OXOX protein was eluted from the resin in 50 mM succinate pH 5, 100 mM KCl. The E. coli expression procedure was scalable allowing large scale protein production for kinetic analysis as well as small scale production for high throughput screening of libraries.
(§3) Oxalate oxidase enzymatic activity was determined in a coupled reaction. Oxalate oxidase converts oxalic acid to carbon dioxide and hydrogen peroxide. In the presence of horse radish peroxidase, hydrogen peroxide reacts with 3-methyl-2-benzothiazolinone hydrazone (MBTH) and N,N-dimethylaniline (DMA) to form indamine dye, which can be detected spectrophotmetrically or colorimetrically as described by Laker, M. F., Hoffman, A. F., and Meeuse, J. D. (1980) Clinical Chemistry 26, 827-830. The coupled reaction was used for characterization of oxalate oxidase kinetic properties as well as in a screening procedure to identify oxalate oxidase variants with improved enzymatic properties.
(§4) DNA shuffling was performed as described elsewhere herein. A polymerase chain reaction product corresponding to the OXOX-C coding sequence was fragmented by limited nuclease treatment. Synthetic oligonucleotides encoding sequence diversity from oxalate decarboxylase sequences found in public databases were added. A polymerase chain reaction procedure was performed on the mixture to yield a library of full length OXOX-C coding sequences with additional diversity incorporated. The resulting library was inserted in expression vector pET32, E. coli cells were transformed and protein was expressed, as described in Example 2. A tiered screening strategy was devised based on the OXOX protein expression and enzymatic activity determination procedures described in Examples 2 and 3, respectively. A high throughput screening process based on colorimetric determination of OXOX activity was utilized to identify individual E. coli strains harboring active OXOX variants. These OXOX-active strains were reassayed using quantitative spectrophotometric determination of OXOX activity. […] Three rounds of this iterative screening and selection procedure were completed, and OXOX variants with up to 8-fold improved activity were identified
(§5) More modest improvements in Km and Kcat were observed under lower pH conditions. Coupled reaction was preformed as described in Example 3. Enzyme kinetic parameters were determined by standard methods as described in Segel (1976) Biochemical calculations, 2nd Edition. John Wiley & Sons, London, New York, Sydney, Toronto.

[2] = substrate: O=C(O)C(=O)O; experiment: Oxalate oxidase kinetics, coupled horse radish peroxidase assay, ALT7 (3-25)
Source text: as §1, §2, §3, §4, §5

[3] = substrate: O=C(O)C(=O)O; experiment: Oxalate oxidase kinetics, coupled horse radish peroxidase assay, ALT1 (WT-Q7)
Source text: as §1, §2, §3
Three potential glycosylations sites with the consensus amino acid sequence N—X—(S/T) were identified in OXOX-C at amino acid positions 60, 384 and 430 in SEQ ID NO:27. Site-directed mutagenesis was used to alter these sites (Quickchange, Stratagene). Every possible amino acid substitution was generated at the third amino acid position of each potential glyosylation site. The resulting variants were screened for activity using the enzymatic assay described in Example 3. […] These variants correspond to sequences OXOX-C-MOD1-ALT1 (SEQ ID NO:23) and OXOX-C-MOD1-ALT2 (SEQ ID NO:24).
as §5

B1: Ceriporiopsis subvermispora oxalate oxidase OXOX-C variant ALT6 (3-21), L23P/I60E/T63Q/I99V/L177M/L196I/F259Y/I278V/F339Y/F387Y/F396Y relative to OXOX-C-ALT1 … (protein)
chain: RPTENGPQIVIANNAGTYLPVPRGSGTKSSSAADATQTVPFASDDPNPRLWDIDTKNLEKVQPERGQLGAKILGPDNLPIDLQNADTLAPPTTDSGSVPNPKWPFALSHNTLYSGGWVRIQNDEVMPIAKAMAGVNMRLEAGAIRELHWHNTPEWAYILKGTTQITAVDQNGRNYMANVGPGDLWYFPEGMPHSIQGTDANNEGSEFLLIFPDGTFDSSNQFMITDWLAHTPKDVIAKNFGVDISEFDRLPSHDLYIYPGVAPPLDAKAPEDPQGTVPLPYSFEFSKVKPTQYAGGTVKIADTRTFPIAKTISVAEVTVEPGAMRELHWHPTEDEWTYFIEGQARVTIFAGQSNAQTYDYQGGDIAYIPTAWGHYVENSGNTQLRYLEIFNSPLYEDVSLAQWIANTPPAIVKATLQLSDEVINTLNKQKAFVVG
- Km ([1]; other: pH 3.8, pH 3.8): 0.12 mM
- kcat ([1]; other: pH 3.8, pH 3.8): 2.79 s⁻¹
- Km ([1]; other: pH 4.8, pH 4.8): 0.55 mM
- kcat ([1]; other: pH 4.8, pH 4.8): 2.61 s⁻¹
- Km ([1]; other: pH 5.8, pH 5.8): 1.46 mM
- kcat ([1]; other: pH 5.8, pH 5.8): 1.72 s⁻¹

B2: Ceriporiopsis subvermispora oxalate oxidase OXOX-C variant ALT7 (3-25), L23P/I54M/I60E/I99V/W118Y/P154A/I159V/L177M/D218N/F259Y/I278V/F339Y/Y359F/G363A/F396Y … (protein)
chain: RPTENGPQIVIANNAGTYLPVPRGSGTKSSSAADATQTVPFASDDPNPRLWDMDTKNLEKVTPERGQLGAKILGPDNLPIDLQNADTLAPPTTDSGSVPNPKWPFALSHNTLYSGGYVRIQNDEVMPIAKAMAGVNMRLEAGAIRELHWHNTAEWAYVLKGTTQITAVDQNGRNYMANVGPGDLWYFPEGMPHSLQGTDANNEGSEFLLIFPDGTFNSSNQFMITDWLAHTPKDVIAKNFGVDISEFDRLPSHDLYIYPGVAPPLDAKAPEDPQGTVPLPYSFEFSKVKPTQYAGGTVKIADTRTFPIAKTISVAEVTVEPGAMRELHWHPTEDEWTYFIEGQARVTIFAGQSNAQTFDYQAGDIAYIPTAWGHYVENSGNTQLRFLEIFNSPLYEDVSLAQWIANTPPAIVKATLQLSDEVINTLNKQKAFVVG
- Km ([2]; other: pH 3.8, pH 3.8): 0.45 mM
- kcat ([2]; other: pH 3.8, pH 3.8): 12.01 s⁻¹
- Km ([2]; other: pH 4.8, pH 4.8): 2.17 mM
- kcat ([2]; other: pH 4.8, pH 4.8): 8.28 s⁻¹
- Km ([2]; other: pH 5.8, pH 5.8): 7.84 mM
- kcat ([2]; other: pH 5.8, pH 5.8): 5.85 s⁻¹

B3: Ceriporiopsis subvermispora oxalate oxidase OXOX-C variant ALT1 (WT-Q7), glycosylation minus, T60I/T384Q/S430Q relative to SEQ ID NO: 37, SEQ ID NO: 23 … (protein)
chain: RPTENGPQIVIANNAGTYLPVLRGSGTKSSSAADATQTVPFASDDPNPRLWDIDTKNLIKVTPERGQLGAKILGPDNLPIDLQNADTLAPPTTDSGSIPNPKWPFALSHNTLYSGGWVRIQNDEVMPIAKAMAGVNMRLEAGAIRELHWHNTPEWAYILKGTTQITAVDQNGRNYLANVGPGDLWYFPEGMPHSLQGTDANNEGSEFLLIFPDGTFDSSNQFMITDWLAHTPKDVIAKNFGVDISEFDRLPSHDLYIFPGVAPPLDAKAPEDPQGTIPLPYSFEFSKVKPTQYAGGTVKIADTRTFPIAKTISVAEVTVEPGAMRELHWHPTEDEWTFFIEGQARVTIFAGQSNAQTYDYQGGDIAYIPTAWGHYVENSGNTQLRFLEIFNSPLFEDVSLAQWIANTPPAIVKATLQLSDEVINTLNKQKAFVVG
notes: glycosylation sites removed
- Km ([3]; other: pH 3.8, pH 3.8): 0.33 mM
- kcat ([3]; other: pH 3.8, pH 3.8): 5.00 s⁻¹
- Km ([3]; other: pH 4.8, pH 4.8): 1.21 mM
- kcat ([3]; other: pH 4.8, pH 4.8): 2.70 s⁻¹
- Km ([3]; other: pH 5.8, pH 5.8): 6.01 mM
- kcat ([3]; other: pH 5.8, pH 5.8): 0.85 s⁻¹
